According to US20220380478A1 (TONIX PHARMA, published 2022):

How the values were obtained:
CD16aF (FcγRIIIaF) [1] = molecular target: T1, CD16aF (FcγRIIIaF) (UniProt P08637 17-208); assay: SPR (Biacore T200); mAb captured on Protein A, FcγR injected; steady-state affinity
Method: The analytes were antigens in the FcγR panel (CD16aF, CD16aV, CD32aH, CD32bF; National Research Council, Canada), which were resuspended in PBST containing 3.4 mM EDTA and 0.05% Tween20.

FcγRIA (CD64) [2] = molecular target: T2, FcγRIA (CD64) (UniProt P12314 16-292, limits assumed); assay: SPR (Biacore T200); mAb captured on Protein A, FcγRIA injected
T2 construct: also called FcgRIa; FcγR1A
Method: (§1) Specifically, FcγRIA was injected over anti-CD154 antibody pools immobilized onto a Protein A surface (2,000 Rus; Cat #Z02201 […] ®, Piscataway, N.J.), using PBST pH 7.4 (PBS with 0.05% Tween 20) as the running buffer. […] The regeneration was conducted with 1×60s 10 mM glycine pH 1.5, flow 30 μL/min.

FcγRIA (CD64) [3] = molecular target: T2, FcγRIA (CD64); assay: SPR (Biacore T200); mAb captured on Protein A, FcγRIA injected; run with TNX01-TNX05
Method: as §1

FcγRIA (CD64) [4] = molecular target: T2, FcγRIA (CD64); assay: SPR (Biacore T200), FcγRIA binding; run with TNX06-TNX13
FcγRIA (CD64) [5] = molecular target: T2, FcγRIA (CD64); assay: SPR (Biacore T200), FcγRIA binding
CD16aV (FcγRIIIaV) = CD16aV (FcγRIIIaV) (UniProt P08637 17-208); assay: SPR (Biacore T200), low-affinity FcγR panel
Sequence of CD16aV (FcγRIIIaV) (P08637 17-208 F176V): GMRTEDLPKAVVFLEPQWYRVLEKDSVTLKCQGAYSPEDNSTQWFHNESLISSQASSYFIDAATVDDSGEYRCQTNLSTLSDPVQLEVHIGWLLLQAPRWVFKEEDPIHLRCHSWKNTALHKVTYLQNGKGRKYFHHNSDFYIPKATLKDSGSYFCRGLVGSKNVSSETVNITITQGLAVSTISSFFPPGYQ

CD32aH (FcγRIIaH) = molecular target: T3, CD32aH (FcγRIIaH) (UniProt P12318 34-217); assay: SPR (Biacore T200), low-affinity FcγR panel
T3 sequence (looked up): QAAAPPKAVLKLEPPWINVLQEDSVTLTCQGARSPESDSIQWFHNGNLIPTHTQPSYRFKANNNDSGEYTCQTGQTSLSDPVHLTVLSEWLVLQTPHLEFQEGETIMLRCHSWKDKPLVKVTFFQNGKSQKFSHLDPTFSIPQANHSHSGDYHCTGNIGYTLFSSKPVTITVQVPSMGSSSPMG

CD16aF (FcγRIIIaF) [6] = molecular target: T1, CD16aF (FcγRIIIaF); assay: SPR (Biacore T200), low-affinity FcγR panel
FcγRIA (CD64) [7] = molecular target: T2, FcγRIA (CD64); assay: SPR (Biacore T200); mAb captured on Protein A, FcγRIA injected; steady-state end-point analysis
Method: as §1

T2 sequence (P12314 16-292 limits assumed): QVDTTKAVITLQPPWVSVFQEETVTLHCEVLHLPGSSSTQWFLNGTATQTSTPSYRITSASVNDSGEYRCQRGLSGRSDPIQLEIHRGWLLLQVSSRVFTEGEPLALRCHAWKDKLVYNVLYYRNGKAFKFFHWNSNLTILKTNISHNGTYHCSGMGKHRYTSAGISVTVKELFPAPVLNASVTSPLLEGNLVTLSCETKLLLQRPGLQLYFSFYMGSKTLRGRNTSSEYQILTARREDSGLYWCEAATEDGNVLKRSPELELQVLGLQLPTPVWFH
T1 sequence (P08637 17-208): as the sequence (P08637 17-208 F176V) above, with V160F counted along it

B1: TNX05 anti-CD154 monoclonal antibody (antibody, human IgG4 S228P, kappa)
heavy: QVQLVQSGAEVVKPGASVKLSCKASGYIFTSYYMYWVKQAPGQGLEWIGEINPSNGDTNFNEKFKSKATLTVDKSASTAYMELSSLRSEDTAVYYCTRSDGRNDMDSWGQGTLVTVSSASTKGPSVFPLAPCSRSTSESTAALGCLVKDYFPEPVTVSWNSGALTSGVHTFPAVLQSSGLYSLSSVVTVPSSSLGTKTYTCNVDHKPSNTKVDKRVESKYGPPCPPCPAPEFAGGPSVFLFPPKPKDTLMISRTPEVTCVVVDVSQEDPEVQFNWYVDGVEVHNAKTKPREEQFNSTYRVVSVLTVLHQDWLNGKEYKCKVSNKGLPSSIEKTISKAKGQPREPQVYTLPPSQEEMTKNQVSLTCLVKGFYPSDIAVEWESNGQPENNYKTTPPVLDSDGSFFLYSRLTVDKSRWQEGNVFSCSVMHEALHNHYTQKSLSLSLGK
light: DIVLTQSPATLSVSPGERATISCRASQRVSSSTYSYMHWYQQKPGQPPKLLIKYASNLESGVPARFSGSGSGTDFTLTISSVEPEDFATYYCQHSWEIPPTFGGGTKLEIKRTVAAPSVFIFPPSDEQLKSGTASVVCLLNNFYPREAKVQWKVDNALQSGNSQESVTEQDSKDSTYSLSSTLTLSKADYEKHKVYACEVTHQGLSSPVTKSFNRGEC
notes: also called hu5c8 mutated-IgG4 (IgG4 S228P/L235A)
- binding result (CD16aF (FcγRIIIaF) [1]): binds
- fold loss of activity (against TNX02) (FcγRIA (CD64) [2]): 300 fold

B2: TNX02 anti-CD154 monoclonal antibody (antibody, human IgG1, kappa)
heavy: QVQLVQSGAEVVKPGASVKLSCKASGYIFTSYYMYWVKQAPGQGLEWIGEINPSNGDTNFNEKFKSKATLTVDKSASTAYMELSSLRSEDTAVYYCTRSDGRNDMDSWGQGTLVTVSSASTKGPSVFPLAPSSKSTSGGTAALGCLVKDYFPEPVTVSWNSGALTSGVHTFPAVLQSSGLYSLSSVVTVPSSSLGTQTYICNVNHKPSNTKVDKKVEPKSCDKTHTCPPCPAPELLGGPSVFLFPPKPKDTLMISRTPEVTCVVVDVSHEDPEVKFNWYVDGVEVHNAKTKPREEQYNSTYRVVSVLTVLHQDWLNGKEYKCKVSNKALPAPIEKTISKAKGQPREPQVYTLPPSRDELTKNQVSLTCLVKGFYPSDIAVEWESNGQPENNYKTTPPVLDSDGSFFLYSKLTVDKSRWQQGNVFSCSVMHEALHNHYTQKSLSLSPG
light: DIVLTQSPATLSVSPGERATISCRASQRVSSSTYSYMHWYQQKPGQPPKLLIKYASNLESGVPARFSGSGSGTDFTLTISSVEPEDFATYYCQHSWEIPPTFGGGTKLEIKRTVAAPSVFIFPPSDEQLKSGTASVVCLLNNFYPREAKVQWKVDNALQSGNSQESVTEQDSKDSTYSLSSTLTLSKADYEKHKVYACEVTHQGLSSPVTKSFNRGEC
notes: also called IgG1 (wildtype)
- binding result (CD16aF (FcγRIIIaF) [1]): binds
- Kd (FcγRIA (CD64) [3]): ~0.03 nM
- Kd (FcγRIA (CD64) [4]): ~0.04 nM

B3: TNX09 anti-CD154 monoclonal antibody (antibody, human IgG4 S228P, kappa, F234A L235A)
heavy: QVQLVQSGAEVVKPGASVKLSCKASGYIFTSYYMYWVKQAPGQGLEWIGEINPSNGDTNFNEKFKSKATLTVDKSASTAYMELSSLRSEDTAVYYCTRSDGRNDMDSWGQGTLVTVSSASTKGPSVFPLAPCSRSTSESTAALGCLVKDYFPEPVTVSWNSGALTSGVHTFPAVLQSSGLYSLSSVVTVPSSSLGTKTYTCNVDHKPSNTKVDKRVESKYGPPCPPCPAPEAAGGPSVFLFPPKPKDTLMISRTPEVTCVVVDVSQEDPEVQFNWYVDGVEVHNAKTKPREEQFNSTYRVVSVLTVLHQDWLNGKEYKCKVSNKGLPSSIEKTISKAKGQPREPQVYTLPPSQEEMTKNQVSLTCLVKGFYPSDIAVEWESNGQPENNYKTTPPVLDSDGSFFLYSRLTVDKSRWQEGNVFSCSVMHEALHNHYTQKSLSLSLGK
light: DIVLTQSPATLSVSPGERATISCRASQRVSSSTYSYMHWYQQKPGQPPKLLIKYASNLESGVPARFSGSGSGTDFTLTISSVEPEDFATYYCQHSWEIPPTFGGGTKLEIKRTVAAPSVFIFPPSDEQLKSGTASVVCLLNNFYPREAKVQWKVDNALQSGNSQESVTEQDSKDSTYSLSSTLTLSKADYEKHKVYACEVTHQGLSSPVTKSFNRGEC
notes: also called IgG4 (S228P, F234A, L235A)
- fold weaker binding than TNX02 (FcγRIA (CD64) [5]): 3800 fold
- fold loss (against TNX02) (CD16aV (FcγRIIIaV)): ~12 fold
- binding result (CD32aH (FcγRIIaH)): no binding
- binding result (CD16aF (FcγRIIIaF) [6]): no binding

B4: TNX08 anti-CD154 monoclonal antibody (antibody, human IgG4 S228P, kappa)
heavy: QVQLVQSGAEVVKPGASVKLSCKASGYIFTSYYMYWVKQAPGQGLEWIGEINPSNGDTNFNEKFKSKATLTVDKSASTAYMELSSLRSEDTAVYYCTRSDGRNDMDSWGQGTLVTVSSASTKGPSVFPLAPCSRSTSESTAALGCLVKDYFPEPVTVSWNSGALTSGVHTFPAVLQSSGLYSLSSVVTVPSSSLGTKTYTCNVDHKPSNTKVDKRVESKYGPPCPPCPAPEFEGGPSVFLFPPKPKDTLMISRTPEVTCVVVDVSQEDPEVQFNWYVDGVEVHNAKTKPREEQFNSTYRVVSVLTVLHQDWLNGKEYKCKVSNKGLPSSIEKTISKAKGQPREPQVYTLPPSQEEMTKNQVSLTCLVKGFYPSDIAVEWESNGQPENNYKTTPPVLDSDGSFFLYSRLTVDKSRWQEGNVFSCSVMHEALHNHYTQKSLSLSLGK
light: DIVLTQSPATLSVSPGERATISCRASQRVSSSTYSYMHWYQQKPGQPPKLLIKYASNLESGVPARFSGSGSGTDFTLTISSVEPEDFATYYCQHSWEIPPTFGGGTKLEIKRTVAAPSVFIFPPSDEQLKSGTASVVCLLNNFYPREAKVQWKVDNALQSGNSQESVTEQDSKDSTYSLSSTLTLSKADYEKHKVYACEVTHQGLSSPVTKSFNRGEC
notes: also called IgG4 (S228P, L235E)
- fold weaker binding than TNX02 (FcγRIA (CD64) [5]): 2600 fold
- binding result (CD16aF (FcγRIIIaF) [6]): binds

B5: TNX12 anti-CD154 monoclonal antibody (antibody, human IgG1, kappa)
heavy: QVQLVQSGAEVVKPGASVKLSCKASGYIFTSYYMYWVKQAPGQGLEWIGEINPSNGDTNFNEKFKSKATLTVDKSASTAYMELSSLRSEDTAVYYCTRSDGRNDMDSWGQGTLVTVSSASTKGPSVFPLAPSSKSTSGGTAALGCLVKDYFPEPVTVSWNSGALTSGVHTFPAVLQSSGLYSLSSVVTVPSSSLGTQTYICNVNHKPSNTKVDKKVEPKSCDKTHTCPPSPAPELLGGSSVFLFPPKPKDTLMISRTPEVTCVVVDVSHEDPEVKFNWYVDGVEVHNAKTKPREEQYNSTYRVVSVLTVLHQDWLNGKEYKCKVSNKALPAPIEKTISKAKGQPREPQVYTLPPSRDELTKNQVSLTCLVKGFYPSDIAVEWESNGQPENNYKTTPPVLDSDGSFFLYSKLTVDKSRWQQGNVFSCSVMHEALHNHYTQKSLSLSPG
light: DIVLTQSPATLSVSPGERATISCRASQRVSSSTYSYMHWYQQKPGQPPKLLIKYASNLESGVPARFSGSGSGTDFTLTISSVEPEDFATYYCQHSWEIPPTFGGGTKLEIKRTVAAPSVFIFPPSDEQLKSGTASVVCLLNNFYPREAKVQWKVDNALQSGNSQESVTEQDSKDSTYSLSSTLTLSKADYEKHKVYACEVTHQGLSSPVTKSFNRGEC
notes: also called IgG1 (C229S, P238S)
- binding result (FcγRIA (CD64) [5]): binds
- binding result (CD16aV (FcγRIIIaV)): no binding
- binding result (CD32aH (FcγRIIaH)): no binding
- binding result (CD16aF (FcγRIIIaF) [6]): no binding

B6: TNX13 anti-CD154 monoclonal antibody (antibody, human IgG1, kappa)
heavy: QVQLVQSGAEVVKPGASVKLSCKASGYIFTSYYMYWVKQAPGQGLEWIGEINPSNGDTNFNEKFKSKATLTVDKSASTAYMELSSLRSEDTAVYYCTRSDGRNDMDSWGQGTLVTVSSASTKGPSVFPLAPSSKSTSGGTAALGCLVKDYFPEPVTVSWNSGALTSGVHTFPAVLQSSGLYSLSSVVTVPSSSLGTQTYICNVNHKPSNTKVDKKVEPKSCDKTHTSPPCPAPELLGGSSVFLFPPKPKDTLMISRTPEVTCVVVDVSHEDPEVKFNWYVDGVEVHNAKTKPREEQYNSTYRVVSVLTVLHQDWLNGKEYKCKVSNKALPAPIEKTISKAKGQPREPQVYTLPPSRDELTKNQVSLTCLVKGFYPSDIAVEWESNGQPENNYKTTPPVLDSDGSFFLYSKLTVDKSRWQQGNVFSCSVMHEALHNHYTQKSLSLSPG
light: DIVLTQSPATLSVSPGERATISCRASQRVSSSTYSYMHWYQQKPGQPPKLLIKYASNLESGVPARFSGSGSGTDFTLTISSVEPEDFATYYCQHSWEIPPTFGGGTKLEIKRTVAAPSVFIFPPSDEQLKSGTASVVCLLNNFYPREAKVQWKVDNALQSGNSQESVTEQDSKDSTYSLSSTLTLSKADYEKHKVYACEVTHQGLSSPVTKSFNRGEC
notes: also called IgG1 (C226S, P238S)
- binding result (FcγRIA (CD64) [5]): binds
- binding result (CD16aV (FcγRIIIaV)): no binding
- fold loss of binding activity (against TNX02) (CD32aH (FcγRIIaH)): 17 fold
- binding result (CD16aF (FcγRIIIaF) [6]): no binding

B7: TNX04 anti-CD154 monoclonal antibody (antibody)
heavy: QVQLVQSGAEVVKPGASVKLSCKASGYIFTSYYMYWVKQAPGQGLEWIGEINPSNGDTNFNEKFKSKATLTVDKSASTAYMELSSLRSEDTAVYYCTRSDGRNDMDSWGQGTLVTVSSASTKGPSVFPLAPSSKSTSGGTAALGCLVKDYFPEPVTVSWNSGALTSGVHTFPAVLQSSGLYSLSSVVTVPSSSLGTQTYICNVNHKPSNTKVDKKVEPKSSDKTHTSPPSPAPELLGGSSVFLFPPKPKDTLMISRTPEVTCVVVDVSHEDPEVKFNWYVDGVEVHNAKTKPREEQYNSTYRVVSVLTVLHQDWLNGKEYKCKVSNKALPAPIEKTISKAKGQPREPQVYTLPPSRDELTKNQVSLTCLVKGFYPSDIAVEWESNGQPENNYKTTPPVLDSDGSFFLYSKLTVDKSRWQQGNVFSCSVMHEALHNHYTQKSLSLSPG
light: DIVLTQSPATLSVSPGERATISCRASQRVSSSTYSYMHWYQQKPGQPPKLLIKYASNLESGVPARFSGSGSGTDFTLTISSVEPEDFATYYCQHSWEIPPTFGGGTKLEIKRTVAAPSVFIFPPSDEQLKSGTASVVCLLNNFYPREAKVQWKVDNALQSGNSQESVTEQDSKDSTYSLSSTLTLSKADYEKHKVYACEVTHQGLSSPVTKSFNRGEC
notes: also called IgG1 (C220S, C226S, C229S, P238S)
- binding result (CD16aF (FcγRIIIaF) [1]): no binding (tested: 12 µM to 0.062 µM)
- fold loss of activity (against TNX02) (FcγRIA (CD64) [2]): 11 fold

B8: TNX10 anti-CD154 monoclonal antibody (antibody, human IgG1, kappa, L234A L235A)
heavy: not shown
light: DIVLTQSPATLSVSPGERATISCRASQRVSSSTYSYMHWYQQKPGQPPKLLIKYASNLESGVPARFSGSGSGTDFTLTISSVEPEDFATYYCQHSWEIPPTFGGGTKLEIKRTVAAPSVFIFPPSDEQLKSGTASVVCLLNNFYPREAKVQWKVDNALQSGNSQESVTEQDSKDSTYSLSSTLTLSKADYEKHKVYACEVTHQGLSSPVTKSFNRGEC
notes: also called IgG1 (L234A, L235A)
- fold weaker binding than TNX02 (FcγRIA (CD64) [5]): 1800 fold
- fold loss (against TNX02) (CD16aV (FcγRIIIaV)): ~12 fold
- binding result (CD32aH (FcγRIIaH)): no binding
- binding result (CD16aF (FcγRIIIaF) [6]): no binding

B9: TNX01 anti-CD154 monoclonal antibody (antibody, human IgG1, kappa, N297Q)
heavy: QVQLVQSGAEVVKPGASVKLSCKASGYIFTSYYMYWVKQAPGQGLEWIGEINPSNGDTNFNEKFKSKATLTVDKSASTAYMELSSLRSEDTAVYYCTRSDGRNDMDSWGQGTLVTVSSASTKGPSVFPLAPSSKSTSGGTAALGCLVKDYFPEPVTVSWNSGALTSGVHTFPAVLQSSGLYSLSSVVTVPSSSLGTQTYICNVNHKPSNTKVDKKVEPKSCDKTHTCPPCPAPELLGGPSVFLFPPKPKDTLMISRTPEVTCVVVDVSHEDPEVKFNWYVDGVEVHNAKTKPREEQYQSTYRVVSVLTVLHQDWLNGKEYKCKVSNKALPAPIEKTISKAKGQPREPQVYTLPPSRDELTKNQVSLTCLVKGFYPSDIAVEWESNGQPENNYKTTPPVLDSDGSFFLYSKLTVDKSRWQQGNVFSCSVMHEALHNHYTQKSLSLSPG
light: DIVLTQSPATLSVSPGERATISCRASQRVSSSTYSYMHWYQQKPGQPPKLLIKYASNLESGVPARFSGSGSGTDFTLTISSVEPEDFATYYCQHSWEIPPTFGGGTKLEIKRTVAAPSVFIFPPSDEQLKSGTASVVCLLNNFYPREAKVQWKVDNALQSGNSQESVTEQDSKDSTYSLSSTLTLSKADYEKHKVYACEVTHQGLSSPVTKSFNRGEC
notes: also called IgG1 (N297Q)
- fold loss of activity (against TNX02) (FcγRIA (CD64) [7]): 3000 fold

B10: TNX03 anti-CD154 monoclonal antibody (antibody, human IgG1, kappa, N297G)
heavy: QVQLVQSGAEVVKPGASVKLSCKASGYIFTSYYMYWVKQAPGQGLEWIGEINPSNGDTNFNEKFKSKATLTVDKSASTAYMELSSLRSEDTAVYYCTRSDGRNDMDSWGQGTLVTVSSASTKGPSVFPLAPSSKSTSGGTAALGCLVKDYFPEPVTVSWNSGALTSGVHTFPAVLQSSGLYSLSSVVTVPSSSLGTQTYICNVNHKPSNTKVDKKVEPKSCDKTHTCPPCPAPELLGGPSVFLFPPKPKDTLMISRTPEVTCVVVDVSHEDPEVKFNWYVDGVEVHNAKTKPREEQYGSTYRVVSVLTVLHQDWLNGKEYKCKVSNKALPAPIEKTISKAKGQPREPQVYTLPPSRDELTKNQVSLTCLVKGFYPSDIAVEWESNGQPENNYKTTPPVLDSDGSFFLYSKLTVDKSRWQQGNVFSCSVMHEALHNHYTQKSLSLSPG
light: DIVLTQSPATLSVSPGERATISCRASQRVSSSTYSYMHWYQQKPGQPPKLLIKYASNLESGVPARFSGSGSGTDFTLTISSVEPEDFATYYCQHSWEIPPTFGGGTKLEIKRTVAAPSVFIFPPSDEQLKSGTASVVCLLNNFYPREAKVQWKVDNALQSGNSQESVTEQDSKDSTYSLSSTLTLSKADYEKHKVYACEVTHQGLSSPVTKSFNRGEC
notes: also called IgG1 (N297G)
- fold loss of activity (against TNX02) (FcγRIA (CD64) [7]): 3000 fold

B11: TNX11 anti-CD154 monoclonal antibody (antibody, human IgG1, kappa)
heavy: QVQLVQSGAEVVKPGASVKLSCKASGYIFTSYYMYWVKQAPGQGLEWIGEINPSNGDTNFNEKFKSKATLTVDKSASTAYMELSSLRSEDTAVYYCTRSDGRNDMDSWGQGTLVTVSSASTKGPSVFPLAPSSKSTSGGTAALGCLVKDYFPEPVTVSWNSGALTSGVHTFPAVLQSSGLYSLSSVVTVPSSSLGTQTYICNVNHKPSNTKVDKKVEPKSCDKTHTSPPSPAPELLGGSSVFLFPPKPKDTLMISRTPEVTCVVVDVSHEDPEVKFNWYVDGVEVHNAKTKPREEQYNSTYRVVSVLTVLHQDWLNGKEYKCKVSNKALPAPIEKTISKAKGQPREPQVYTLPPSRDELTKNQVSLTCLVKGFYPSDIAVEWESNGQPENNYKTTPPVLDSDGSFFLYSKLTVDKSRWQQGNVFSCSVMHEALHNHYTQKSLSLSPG
light: DIVLTQSPATLSVSPGERATISCRASQRVSSSTYSYMHWYQQKPGQPPKLLIKYASNLESGVPARFSGSGSGTDFTLTISSVEPEDFATYYCQHSWEIPPTFGGGTKLEIKRTVAAPSVFIFPPSDEQLKSGTASVVCLLNNFYPREAKVQWKVDNALQSGNSQESVTEQDSKDSTYSLSSTLTLSKADYEKHKVYACEVTHQGLSSPVTKSFNRGEC
notes: also called IgG1 (C226S, C229S, P238S)
- binding result (FcγRIA (CD64) [5]): binds

B12: TNX06 anti-CD154 monoclonal antibody (antibody, human IgG4, kappa)
heavy: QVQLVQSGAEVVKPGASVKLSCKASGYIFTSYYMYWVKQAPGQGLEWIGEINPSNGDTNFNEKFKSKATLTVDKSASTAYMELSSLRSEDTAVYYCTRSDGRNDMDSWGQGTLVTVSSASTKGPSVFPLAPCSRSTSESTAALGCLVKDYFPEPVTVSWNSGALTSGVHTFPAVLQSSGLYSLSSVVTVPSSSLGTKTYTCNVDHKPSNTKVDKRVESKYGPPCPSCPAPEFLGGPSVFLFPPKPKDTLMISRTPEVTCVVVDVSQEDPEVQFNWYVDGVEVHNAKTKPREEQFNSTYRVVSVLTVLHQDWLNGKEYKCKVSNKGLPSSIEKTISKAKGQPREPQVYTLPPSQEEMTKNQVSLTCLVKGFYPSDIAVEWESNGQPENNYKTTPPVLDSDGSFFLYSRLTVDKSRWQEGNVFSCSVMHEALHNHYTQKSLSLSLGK
light: DIVLTQSPATLSVSPGERATISCRASQRVSSSTYSYMHWYQQKPGQPPKLLIKYASNLESGVPARFSGSGSGTDFTLTISSVEPEDFATYYCQHSWEIPPTFGGGTKLEIKRTVAAPSVFIFPPSDEQLKSGTASVVCLLNNFYPREAKVQWKVDNALQSGNSQESVTEQDSKDSTYSLSSTLTLSKADYEKHKVYACEVTHQGLSSPVTKSFNRGEC
notes: also called IgG4 Wild Type
- binding result (FcγRIA (CD64) [5]): binds
- binding result (CD16aF (FcγRIIIaF) [6]): binds
